# Reference: PMC8894971, “ENB1 encodes a cellulose synthase 5 that directs synthesis of cell wall ingrowths in maize basal endosperm transfer cells”
# T1: MRP1 (His-TF-MRP1) (Zea mays, UniProt K7V5I7 1-241)
# T1 sequence: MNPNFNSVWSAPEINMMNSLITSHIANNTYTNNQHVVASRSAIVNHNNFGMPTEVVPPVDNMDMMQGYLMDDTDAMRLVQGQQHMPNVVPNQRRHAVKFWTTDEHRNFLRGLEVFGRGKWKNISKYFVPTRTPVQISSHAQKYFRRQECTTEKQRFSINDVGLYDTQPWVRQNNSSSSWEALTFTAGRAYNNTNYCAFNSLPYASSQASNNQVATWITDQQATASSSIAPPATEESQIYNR
# B1: ENB1 promoter Mu probe (dsDNA)
# DNA 1: CTACTTATGAGCGACAGAGCGATGTGACTA
# DNA 2: TAGTCACATCGCTCTGTCGCTCATAAGTAG
# B2: ENB1 promoter WT probe (dsDNA)
# DNA 1: CTACTTATTATCTACATATCTATGTGACTA
# DNA 2: TAGTCACATAGATATGTAGATAATAAGTAG
# What was measured:
# [1] = target: T1, MRP1 (His-TF-MRP1); assay: EMSA; labeled Mu probe; no shifted band; LightShift EMSA kit standard protocol, ~200 ng protein, 5 ng biotin probe, 6% native polyacrylamide gel; buffer, salt, pH and temperature not stated; conditions: protein: recombinant; tags: N-terminal His-TF (trigger factor, pCold-TF); blunt (duplex implied)
# [2] = target: T1, MRP1 (His-TF-MRP1); assay: EMSA; LightShift EMSA kit standard protocol, ~200 ng protein, 5 ng biotin probe, 6% native polyacrylamide gel; buffer, salt, pH and temperature not stated; conditions: protein: recombinant; tags: N-terminal His-TF (trigger factor, pCold-TF); blunt (duplex implied)
Binder,binding result [1],binding result [2]
B1,no binding,
B2,,binds
